Common to all, as to assay: SEC; analytical size exclusion on Superose 6 10/300 GL, AKTA FPLC, 4°C, 25 mM sodium phosphate, 150 mM NaCl, pH 7.5, 0.4 ml/min; molecular weights estimated with high molecular weight calibration kit; 200 μg to 1 mg protein loaded
Data set [1] concerns the target K1F depolymerase (coliphage K1F).
For data set [2], the target named is K1H depolymerase (coliphage K1H).
In data set [3] the target is K5 depolymerase (coliphage K1-5).
Data set [4] deals with the molecule itself.

Usually stoichiometry N stands for the number of molecules, sites or subunits per partner or assembly.

For the molecule K1F depolymerase (enzyme), in data set [1], the stoichiometry N is 3.
In the case of K1H depolymerase (enzyme), the stoichiometry N in data set [2] is 3.
Regarding K5 depolymerase (enzyme), the stoichiometry N in data set [3] is 3.

B1: K30 gp42 (natural protein)
chain: MLDKLNQPKGSTIGVLKDGRTTQEAIDELTNDVTGSITTTRYASSASQALFPKLIDKMTAYRHGVSGFQDKFRIYGYGSSVGNGATIGGNSSPNTPVAKFFEHFQRTVNKAGIYPFEYSNKSVDGSNINDFLNREWPATVATGVFPDLAVFAYGMNDFPSAQYNAGMTFGANGFKQRLRNAIQKVRDAGGDVVLLTTPHPNIEEYSWELPSSIDMVWPQFAAKPVAGDVLIPPVSQSNVSFDFMGKRITQGVRFLRGNDAMREVAVEMGCVLIDVEKYWFEAVGKYGNVLLFDRVPAMQTVHPNLLGHQQSYWRAIEEFFNNVDSSGWIAPDAKLNQTLDVGGNALNPAKMEADVDLQANGIRQRAFVRRDKSGRVMEELTQDSRVKRTSYTVSDPTVSAPGYSLTWDEWFTRTKGLFTSGETLGIPVNNRTEGRLLVTAWISGQTGWTQLEDYLVSNREGVVLVSKIGSLDNTPPAGGTGTNGQRLFTVSTSANNVVVNILSDNATVKFKLDTFGA
As for B1, the “stoichiometry N” value in data set [4] was 3.

B2: K30 gp41 (enzyme)
chain: MDQDIKTVIQYPVGATEFDIPFDYLSRKFVRVSLVTGDNRRLLSNITEYRYVSKTRVKLLVETAGFDRVEIRRFTSASERIVDFSDGSVLRAADLNVSQIQSAHIAEEARDAALMAMPQDDVGNLDARNRRIVRLAPGIDSTDAINKNQLDTTLGEAGGILSQVKDTQKDIQNYIQKFGDDTAMVRGVNWVYNGGSAIGGETSFIIDKSAPVFAVPYIEVNGSRQFRDWQYEYDPATKRVTLVKPLEAGDFVVCLTTENKLPLEDLLASTGGADSIGKAGGGTVQDGLDATIHGTDVHRDTVTPGKLDTLLVYNGTNAGRDLRGHEFVMPHGTFSATRILRTRGISAAESKYTGFTWRGQGSSFTKLVHPATGGQGDIAFMDYLKDVTMSGFMMDNTALGQGTSNQDTRNGQFWIRHSVDSYFDDLRFAGADALTFCLDHCKNIYSTNLKVDYQLRYPTGTGKSPLIVGDYSEQCMFIGGYVKTVSPDGTIKYAGDLADNDQADDTKWAFINLYGLTFEQKPNSNACMWQEGEGAPSNAHFIGMNYINNGVGHGVSEKAVGTDIGSTFRQAQVRAVWNRAEYISIGSHFINNDAKYPAGTGGAGTAAAGGVHNDNAKFTSLVGDYFRGNFADYTDYTGASGVNPENSTHITNAKLTSIIRTSSSSTSQHLAIVNCQLTSAGRISGGGNGRLHVSVVASHCVGPLGQFGHGQSETYLDVINSTFTAAGSTEAMITQSGVGNISFANSTFRDYIRVVDGSHTRVTFRNCTFYTCTFTEDDRKARYVNCRFISCTDAPDSFGLNFAADSLDRPSSLRVNVTLTAGGSYTFPAWVLQGRGAYFINVGGNGANLPACAGIIGKSSATGSGVWTPQWESTPSSIVVSWPSNGYITVTATTAGNYTIGVH
As for B2, in data set [4], the “stoichiometry N” value was 3.

These data come from publication PMC5696595, “Therapeutic Application of Phage Capsule Depolymerases against K1, K5, and K30 Capsulated E. coli in Mice” (Frontiers in Microbiology, 2017).
